This note sets out measurements from patent US20050100540A1, “Platelet-activating factor acetylhydrolase” (priority 1993, published 2005).

One data set has as its system PAF mediated lung injury. Put plainly: Guinea pig model of acute respiratory distress syndrome (ARDS), BAL protein. In kind it is in vivo. The note with it: 2000 units 15 minutes before 400 ng/kg PAF infusion. The protocol: Base on the above observations, an ARDS model in guinea pigs % as developed. A cannula is placed into the jugular vein of anaesthetized male Hartly guinea pigs (approximately 350-400 grams) and PAF diluted in a 500 μl volume of phosphate buffered saline with 0.25% bovine serum albumin as a carrier (PBS-BSA) is infused over a 15 minute period of time at a total dosage ranging from 100-400 ng/kg. At various intervals following PAF infusion, animals are sacrificed and lung tissue is collected. In guinea pigs infused with PAF, dose dependent lung damage and inflammation is clearly evident by 15 minutes and continues to be present at 60 minutes. Neutrophils and red blood cells are present in the alveolar spaces of PAF treated guinea pigs but absent in control or sham infused animals. Evidence of epithelial cell damage is also evident and reminiscent of hyaline membrane formation in human ARDS patients.
Groups of guinea pigs were pretreated with either PAF-AH (2000 units in 500 μl) or 500 μl of the PAF-AH buffer only. Fifteen minutes later these guinea pigs were infused with 400 ng/kg PAF in a 500 μl volume, infused over a 15 minute period. In addition, a sham group of guinea pigs was infused with 500 μl of PBS-BSA. […] To determine protein concentration in the BAL, samples were diluted 1:10 in saline and the OD 280 was determined.

In data set [1] the test system is low and high density lipoproteins. Briefly: Association with lipoproteins on incubation with DFP-treated human plasma. Type of data set: binding. The settings on record: human plasma previously treated with DFP. From the text: An unusual feature of the native plasma PAF acetylhydrolase is that it is tightly associated with lipoproteins in circulation, and its catalytic efficiency is influenced by the lipoprotein environment. […] PAF-AH protects low density lipoproteins from modification under oxidizing conditions in vitro and may have such a role in vivo. Administration of PAF-AH is thus indicated for the suppression of the oxidation of lipoproteins in atherosclerotic plaques as well as to resolve inflammation.

A short description of data set [2]: Pharmacokinetics of PAF-AH in rat circulation (double mAb capture ELISA). Type of data set: in vivo. The settings on record: 2000 U IV, mean ±SEM. The protocol:
Four rats received 2000 U of PAF-AH by IV injection in a 300 μl volume. Plasma was collected at various time points and stored at 4° C. and plasma concentrations of PAF-AH were determined by ELISA using a double mAb capture assay. In brief, monoclonal antibody 90G11D (Example 13) was diluted in 50 mM carbonate buffer pH 9.6 at 100 ng/ml and immobilized on Immulon 4 ELISA plates overnight at 4° C. After extensive washing with PBS containing 0.05/Tween 20, the plates were blocked for 1 hour at room temperature with 0.5% fish skin gelatin (Sigma) diluted in PBS. Serum samples diluted in PBS with 15 mM CHAPS were added in duplicate to the washed ELISA plate and incubated for 1 hour at room temperature. After washing, a biotin conjugate of monoclonal antibody 90F2D (Example 13) was added to the wells at a concentration of 5 μg/ml diluted in PBS and incubated for 1 hour at room temperature. After washing, 50 μl of a 1:1000 dilution of ExtraAvidin (Sigma) was added to the wells and incubated for 1 hour at room temperature. After washing, wells were developed using OPD as a substrate and quantitated. Enzyme activity was then calculated from a standard curve. […]
(In general: ELISA stands for enzyme-linked immunosorbent assay.)

Data set [3] deals with OVA-induced eosinophil infiltration of the trachea. Briefly: Antigen-induced eosinophil recruitment to trachea. In kind it is in vivo, mouse. The settings on record: 750 units IV before and 24 h after aerosolized OVA (group 4). The method, then: Recombinant PAF-AH enzyme of the invention was also tested for efficacy in a model of antigen-induced eosinophil recruitment. The accumulation of eosinophils in the airway is a characteristic feature of late phase immune responses which occur in asthma, rhinitis and eczema. BALB/c mice (Charles River) were sensitized by two intraperitoneal injections consisting of 1 μg of ovalbumin (OVA) in 4 mg of aluminum hydroxide (Imject alum, Pierce Laboratories, Rockford. Ill.) given at a 2 week interval. Fourteen days following the second immunization, the sensitized mice were challenged with either aerosolized OVA or saline as a control.
Prior to challenge mice were randomly placed into four groups, with four mice/group. […] Mice in groups 2 and 4 were pretreated with 750 units of PAF-AH (activity of 5,500 units/ml given in 140 μl of PAF-AH buffer). Thirty minutes following administration of PAF-AH or buffer, mice in groups 1 and 2 were exposed to aerosolized PBS as described below, while mice in groups 3 and 4 were exposed to aerosolized OVA. Twenty-four hours later mice were treated a second time with either 140 μl of buffer (groups 1 and 3) or 750 units of PAF-AH in 140 μl of buffer (groups 2 and 4) given by intravenous injection.
Eosinophil infiltration of the trachea was induced in the sensitized mice by exposing the animals to aerosolized OVA. […]

B1: PAF-AH: Recombinant human plasma platelet-activating factor acetylhydrolase (beginning at Ile42) expressed in E. coli from construct pUC trp AH (protein)
chain: IQVLMAAASFGQTKIPRGNGPYSVGCTDLMFDHTNKGTFLRLYYPSQDNDRLDTLWIPNKEYFWGLSKFLGTHWLMGNILRLLFGSMTTPANWNSPLRPGEKYPLVVFSHGLGAFRTLYSAIGIDLASHGFIVAAVEHRDRSASATYYFKDQSAAEIGDKSWLYLRTLKQEEETHIRNEQVRQRAKECSQALSLILDIDHGKPVKNALDLKFDMEQLKDSIDREKIAVIGHSFGGATVIQTLSEDQRFRCGIALDAWMFPLGDEVYSRIPQPLFFINSEYFQYPANIIKMKKCYSPDKERKMITIRGSVHQNFADFTFATGKIIGHMLKLKGDIDSNVAIDLSNKASLAFLQKHLGLHKDFDQWDCLIEGDDENLIPGTNINTTNQHIMLQNSSGIEKYN
On to B1, for which the “BAL fluid protein concentration” value in the data set on PAF mediated lung injury was found to be 1.13 ± 0.25 mg/mL. The Association with lipoproteins result in data set [1] was “associated with low and high density lipoproteins”. In addition, the “Plasma enzyme level at one hour” value in data set [2] was 374 U/ml. The “Eosinophils in the submucosal tissue of the trachea” value in data set [3] was “very few eosinophils in the submucosal tissue”.
